Experimental data as given in publication doi:10.1101/2023.05.26.542392.

Molecular target: R203M mutant of full-length SARS-CoV-2 nucleocapsid (R203M-FLN) (SARS-CoV-2)
Test: AUC

Q: For “R203M mutant of full-length SARS-CoV-2 nucleocapsid (R203M-FLN) (natural protein)”, which stoichiometry N is on record?
A: 2
